Test results: doi:10.1101/2022.04.26.489556

Target: T1, Rv1019 (TetR family regulator) (UniProt P96381 1-197)
T1 sequence: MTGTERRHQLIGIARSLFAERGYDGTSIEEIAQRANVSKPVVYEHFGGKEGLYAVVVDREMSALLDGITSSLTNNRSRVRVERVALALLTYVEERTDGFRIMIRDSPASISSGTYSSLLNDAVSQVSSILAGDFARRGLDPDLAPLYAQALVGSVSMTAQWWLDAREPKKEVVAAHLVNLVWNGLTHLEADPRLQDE
Experiment: EMSA

B1: MSMEG_1885 palindrome (MS_1886 PAL oligos) (dsDNA)
DNA 1: TAAGTTACGGTACCGTAGGTTG
DNA 2: CAACCTACGGTACCGTAACTTA
Q: Does B1 bind?
A: binds
